Assay results reported in IntAct's records for PubMed 22648170.

B1: Disabled homolog 2 (Mus musculus), P98078-1 (parent)
chain: MSNEVETSTTNGQPDQQAAPKAPSKKEKKKGSEKTDEYLLARFKGDGVKYKAKLIGIDDVPDARGDKMSQDSMMKLKGMAAAGRSQGQHKQRIWVNISLSGIKIIDEKTGVIEHEHPVNKISFIARDVTDNRAFGYVCGGEGQHQFFAIKTGQQAEPLVVDLKDLFQVIYNVKKKEEDKKKVEEANKAEENGSEALMTLDDQANKLKLGVDQMDLFGDMSTPPDLNSPTESKDILLVDLNSEIDTNQNSLRENPFLTNGVTSCSLPRPKPQASFLPENAFSANLNFFPTPNPDPFRDDPFAQPDQSAPSSFDSLTSPDQKKASLSSSSTPQSKGPLNGDTDYFGQQFDQLSNRTGKPEAQGGPWPYPSSQTQQAVRTQNGVSEREQNGFHIKSSPNPFVGSPPKGLSVPNGVKQDLESSVQSSAHDSIAIIPPPQSTKPGRGRRTAKSSANDLLASDIFASEPPGQMSPTGQPAVPQSNFLDLFKGNAPAPVGPLVGLGTVPVTPPQAGPWTPVVYSPSTTVVPGAIISGQPPSFRQPLVFGTTPAVQVWNQSPSFATPASPPPPTVWCPTTSVAPNAWSSTSPLGNPFQSNNIFPPPTMSTQSSPQPMMSSVLATPPQPPPRNGPLKDIPSDAFTGLDPLGDKEVKEVKEMFKDFQLRQPPLVPSRKGETPPSGTSSAFSSYFNNKVGIPQEHVDHDDFDANQLLNKINEPPKPAPRQGVLLGTKSADNSLENPFSKGFSSSNPSVVSQPASSDPHRSPFGNPFA
partner: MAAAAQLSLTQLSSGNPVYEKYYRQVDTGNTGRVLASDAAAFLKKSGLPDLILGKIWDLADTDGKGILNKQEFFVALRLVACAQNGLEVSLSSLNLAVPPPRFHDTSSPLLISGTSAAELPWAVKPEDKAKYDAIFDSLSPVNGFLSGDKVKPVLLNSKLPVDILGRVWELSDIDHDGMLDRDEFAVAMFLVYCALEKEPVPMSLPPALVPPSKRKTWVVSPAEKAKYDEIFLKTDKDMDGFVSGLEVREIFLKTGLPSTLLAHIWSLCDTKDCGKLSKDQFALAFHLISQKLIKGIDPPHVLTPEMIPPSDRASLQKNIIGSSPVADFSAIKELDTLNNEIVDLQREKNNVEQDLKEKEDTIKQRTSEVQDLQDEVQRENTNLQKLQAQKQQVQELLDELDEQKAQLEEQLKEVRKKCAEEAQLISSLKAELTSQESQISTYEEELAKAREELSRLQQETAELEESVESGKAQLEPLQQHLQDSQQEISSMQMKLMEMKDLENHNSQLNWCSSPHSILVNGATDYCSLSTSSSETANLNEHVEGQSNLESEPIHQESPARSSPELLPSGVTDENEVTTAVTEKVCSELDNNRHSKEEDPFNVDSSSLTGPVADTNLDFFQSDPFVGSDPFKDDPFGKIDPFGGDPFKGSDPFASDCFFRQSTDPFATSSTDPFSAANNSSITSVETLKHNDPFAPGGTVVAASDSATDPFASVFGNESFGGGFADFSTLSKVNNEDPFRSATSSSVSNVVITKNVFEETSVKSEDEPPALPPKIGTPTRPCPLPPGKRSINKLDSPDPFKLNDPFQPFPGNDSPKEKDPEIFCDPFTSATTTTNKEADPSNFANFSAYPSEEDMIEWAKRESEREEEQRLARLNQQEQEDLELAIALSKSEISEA
B2: Disabled homolog 2 (Mus musculus), P98078-1 (parent)
chain: B1 chain

Variants of: B1
Conditions: with eps15_human EPS15, P42566

Row | Variant | effect of a mutation on the interaction
1 | F589V;F736V;F765V | disrupting interaction

Variants of: B2
Conditions: with itsn1_mouse Itsn1, Q9Z0R4
itsn1_mouse Itsn1, Q9Z0R4, sequence (Q9Z0R4 whole entry): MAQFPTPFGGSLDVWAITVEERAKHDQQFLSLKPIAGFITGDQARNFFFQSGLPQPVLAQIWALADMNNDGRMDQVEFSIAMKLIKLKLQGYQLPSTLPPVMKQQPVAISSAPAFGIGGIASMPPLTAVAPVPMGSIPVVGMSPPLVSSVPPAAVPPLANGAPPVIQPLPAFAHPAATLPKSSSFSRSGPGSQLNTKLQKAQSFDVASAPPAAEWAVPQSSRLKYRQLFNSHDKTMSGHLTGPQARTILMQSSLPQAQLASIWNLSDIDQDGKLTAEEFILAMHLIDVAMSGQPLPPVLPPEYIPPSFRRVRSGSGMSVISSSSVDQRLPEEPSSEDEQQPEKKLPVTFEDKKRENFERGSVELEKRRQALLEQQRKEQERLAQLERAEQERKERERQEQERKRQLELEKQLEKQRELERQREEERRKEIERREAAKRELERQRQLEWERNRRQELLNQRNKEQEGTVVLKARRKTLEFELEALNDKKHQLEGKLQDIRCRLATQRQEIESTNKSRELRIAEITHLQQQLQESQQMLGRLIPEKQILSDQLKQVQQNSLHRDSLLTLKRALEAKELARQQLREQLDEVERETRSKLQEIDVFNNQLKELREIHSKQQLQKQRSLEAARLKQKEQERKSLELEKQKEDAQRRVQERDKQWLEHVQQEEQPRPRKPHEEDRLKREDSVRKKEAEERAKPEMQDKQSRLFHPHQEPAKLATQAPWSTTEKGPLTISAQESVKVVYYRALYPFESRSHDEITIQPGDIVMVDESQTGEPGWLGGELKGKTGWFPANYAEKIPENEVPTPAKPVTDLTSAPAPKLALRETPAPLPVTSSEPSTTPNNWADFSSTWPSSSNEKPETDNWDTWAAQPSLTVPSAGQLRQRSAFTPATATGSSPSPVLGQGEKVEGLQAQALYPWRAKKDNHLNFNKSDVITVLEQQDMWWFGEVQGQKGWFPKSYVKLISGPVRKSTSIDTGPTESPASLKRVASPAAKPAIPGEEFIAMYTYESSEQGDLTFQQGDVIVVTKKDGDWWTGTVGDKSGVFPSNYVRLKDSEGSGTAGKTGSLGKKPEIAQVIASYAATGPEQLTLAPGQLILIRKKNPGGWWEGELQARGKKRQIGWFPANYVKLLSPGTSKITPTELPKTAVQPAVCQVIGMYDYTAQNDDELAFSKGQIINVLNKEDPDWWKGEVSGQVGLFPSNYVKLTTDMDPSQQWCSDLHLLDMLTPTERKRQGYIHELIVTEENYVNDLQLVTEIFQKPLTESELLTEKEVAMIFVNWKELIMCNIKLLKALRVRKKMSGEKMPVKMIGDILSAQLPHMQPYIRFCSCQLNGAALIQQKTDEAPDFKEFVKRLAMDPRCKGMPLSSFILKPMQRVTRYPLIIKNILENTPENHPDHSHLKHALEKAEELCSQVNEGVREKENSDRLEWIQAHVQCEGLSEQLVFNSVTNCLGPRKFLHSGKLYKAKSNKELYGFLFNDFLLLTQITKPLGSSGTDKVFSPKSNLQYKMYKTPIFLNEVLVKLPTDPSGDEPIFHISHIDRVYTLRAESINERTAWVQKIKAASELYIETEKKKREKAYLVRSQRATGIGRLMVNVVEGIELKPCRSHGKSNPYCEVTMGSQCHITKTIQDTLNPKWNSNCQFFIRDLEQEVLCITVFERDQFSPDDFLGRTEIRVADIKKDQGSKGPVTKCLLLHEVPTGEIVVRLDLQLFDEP

Row | Variant | effect of a mutation on the interaction
2 | F255V;F398V;F589V;F736V;F765V | disrupting interaction
3 | F255V;F398V | decreasing interaction
4 | F589V;F736V;F765V | decreasing interaction
